Assays:
[1] = target: PrP^C, nonpathogenic (cellular) form of the human prion protein (in normal human brain homogenate and human plasma) (human) (UniProt P04156)
[2] = target: PrP^C, nonpathogenic (cellular) form of the human prion protein (in normal human brain homogenate and human plasma) (human) (UniProt P04156); remark: listed apart in the source

3F4 antibody
ave (RLU), Nomal BH [1]: 14.6 RLU

mAb SAF32 (antibody)
LU [2]: 888 LU
